In article PMC6563103 (Hepatology (Baltimore, Md.), 2019):

Molecular target: T1, glutathione S-transferase (GST)-CGI-58 (UniProt Q8WTS1 1-349)
T1 sequence (looked up): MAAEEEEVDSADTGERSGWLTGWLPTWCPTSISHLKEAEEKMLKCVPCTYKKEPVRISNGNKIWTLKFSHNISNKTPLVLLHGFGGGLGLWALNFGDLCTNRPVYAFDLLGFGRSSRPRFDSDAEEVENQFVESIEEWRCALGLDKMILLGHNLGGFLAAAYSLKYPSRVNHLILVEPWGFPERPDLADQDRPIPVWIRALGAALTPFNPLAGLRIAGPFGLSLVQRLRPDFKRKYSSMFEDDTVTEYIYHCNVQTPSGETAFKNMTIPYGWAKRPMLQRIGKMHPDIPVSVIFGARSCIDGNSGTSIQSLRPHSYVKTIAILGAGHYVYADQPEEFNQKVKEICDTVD
Assay: pull-down

B1: recombinant PNPLA3(148M), deca-histidine and Flag fusion protein (enzyme, UniProt Q9NST1 1-481, looked up)
chain: MYDAERGWSLSFAGCGFLGFYHVGATRCLSEHAPHLLRDARMLFGASAGALHCVGVLSGIPLEQTLQVLSDLVRKARSRNIGIFHPSFNLSKFLRQGLCKCLPANVHQLISGKIGISLTRVSDGENVLVSDFRSKDEVVDALVCSCFMPFYSGLIPPSFRGVRYVDGGVSDNVPFIDAKTTITVSPFYGEYDICPKVKSTNFLHVDITKLSLRLCTGNLYLLSRAFVPPDLKVLGEICLRGYLDAFRFLEEKGICNRPQPGLKSSSEGMDPEVAMPSWANMSLDSSPESAALAVRLEGDELLDHLRLSILPWDESILDTLSPRLATALSEEMKDKGGYMSKICNLLPIRIMSYVMLPCTLPVESAIAIVQRLVTWLPDMPDDVLWLQWVTSQVFTRVLMCLLPASRSQMPVSSQQASPCTPEQDWPCWTPCSPKGCPAETKAEATPRSILRSSLNFFLGNKVPAGAEGLSTFPSFSLEKSL
molar ratio of PNPLA3 to CGI-58 in the precipitates: ~0.14 mol PNPLA3 per mol CGI-58
